Measurements: the supplement of paper PMC9112550, “Optimization of the antimicrobial peptide Bac7 by deep mutational scanning” (BMC Biology, 2022)

What follows are sequences tested on Escherichia coli TOP10 (assay: shrunken log2 fold change of peptide-encoding DNA abundance (4.5 h post-induction vs induction); higher = less antimicrobial activity (less host growth inhibition)). Details: time post-induction: 4.5 h; library: site-saturation at positions 5, 18, 19, 20.
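Note: peptides expressed intracellularly from a pBAD plasmid library in pooled LB shake-flask culture, induced with 0.3% L-arabinose, DNA abundance read by NGS, three biological replicates, DESeq2 with apeglm shrinkage.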

RRIRMRPPRLPRPRPRPPQMPRP and RRIRARPPRLPRPRPRPPDMPRP are within 0.2 log units of each other in “shrunken log2 fold change” value: 0.594 for the first, 0.778 for the second.

RRIRSRPPRLPRPRPRPHNTPRP and RRIRNRPPRLPRPRPRPVMQPRP are within 0.2 log units of each other in “shrunken log2 fold change” value: -0.337 for the first, -0.187 for the second.

First: RRIRPRPPRLPRPRPRPIEPPRP
Second: RRIRRRPPRLPRPRPRPVLYPRP
The “shrunken log2 fold change” value of the first is higher: 0.109 for the first, -0.142 for the second.

RRIRRRPPRLPRPRPRPKDPPRP and RRIRDRPPRLPRPRPRPAIIPRP are within 0.2 log units of each other in “shrunken log2 fold change” value: 0.121 for the first, 0.0892 for the second.

Compared with RRIRPRPPRLPRPRPRPVPRPRP, RRIRFRPPRLPRPRPRPITAPRP is lower in “shrunken log2 fold change” value: 0.531 for the first, -0.286 for the second.

Going from RRIRYRPPRLPRPRPRPFRGPRP to RRIRARPPRLPRPRPRPIDSPRP, the “shrunken log2 fold change” value rises from -0.303 to -0.0515.

RRIRSRPPRLPRPRPRPSAHPRP and RRIRSRPPRLPRPRPRPAHNPRP are within 0.2 log units of each other in “shrunken log2 fold change” value: 0.0639 for the first, 0.133 for the second.

RRIRSRPPRLPRPRPRPDIKPRP and RRIRWRPPRLPRPRPRPYVGPRP are within 0.2 log units of each other in “shrunken log2 fold change” value: -0.336 for the first, -0.157 for the second.

Compared with RRIRVRPPRLPRPRPRPYPWPRP, RRIRVRPPRLPRPRPRPSWDPRP is higher in “shrunken log2 fold change” value: -0.361 for the first, 0.192 for the second.

First: RRIRWRPPRLPRPRPRPALAPRP
Second: RRIRQRPPRLPRPRPRPHECPRP
The “shrunken log2 fold change” value of the first is higher: 0.555 for the first, -0.0866 for the second.

First: RRIRWRPPRLPRPRPRPLTPPRP
Second: RRIRQRPPRLPRPRPRPRELPRP
The “shrunken log2 fold change” value of the first is higher: 0.412 for the first, 0.0285 for the second.

First: RRIRTRPPRLPRPRPRPYNKPRP
Second: RRIRTRPPRLPRPRPRPDRAPRP
The “shrunken log2 fold change” value of the first is lower: -1.03 for the first, -0.438 for the second.

Compared with RRIRMRPPRLPRPRPRPVWRPRP, RRIRMRPPRLPRPRPRPKGMPRP is higher in “shrunken log2 fold change” value: 0.947 for the first, 1.37 for the second.

Going from RRIRGRPPRLPRPRPRPLSYPRP to RRIRFRPPRLPRPRPRPERIPRP, the “shrunken log2 fold change” value falls from 0.00315 to -0.352.

Compared with RRIRLRPPRLPRPRPRPCAMPRP, RRIRNRPPRLPRPRPRPLKIPRP is lower in “shrunken log2 fold change” value: 0.00887 for the first, -0.233 for the second.

First: RRIRVRPPRLPRPRPRPPTYPRP
Second: RRIRVRPPRLPRPRPRPICFPRP
The “shrunken log2 fold change” value of the first is lower: -0.432 for the first, 0.0059 for the second.

First: RRIRDRPPRLPRPRPRPLIAPRP
Second: RRIRPRPPRLPRPRPRPMAYPRP
The “shrunken log2 fold change” value of the first is higher: 0.468 for the first, -0.126 for the second.

Compared with RRIRLRPPRLPRPRPRPGTTPRP, RRIRFRPPRLPRPRPRPAMGPRP is higher in “shrunken log2 fold change” value: -0.221 for the first, 0.119 for the second.

Going from RRIRSRPPRLPRPRPRPCGYPRP to RRIRLRPPRLPRPRPRPICKPRP, the “shrunken log2 fold change” value falls from -0.00214 to -0.28.

RRIRTRPPRLPRPRPRPMCDPRP and RRIRKRPPRLPRPRPRPHICPRP are within 0.2 log units of each other in “shrunken log2 fold change” value: 0.0157 for the first, 0.00561 for the second.

RRIRRRPPRLPRPRPRPMVFPRP and RRIRWRPPRLPRPRPRPKWWPRP are within 0.2 log units of each other in “shrunken log2 fold change” value: 0.182 for the first, 0.266 for the second.

Compared with RRIRFRPPRLPRPRPRPAPSPRP, RRIRERPPRLPRPRPRPDWCPRP is lower in “shrunken log2 fold change” value: 0.607 for the first, 0.0337 for the second.

First: RRIRARPPRLPRPRPRPDMGPRP
Second: RRIRIRPPRLPRPRPRPHPIPRP
The “shrunken log2 fold change” value of the first is higher: -0.0014 for the first, -0.265 for the second.

First: RRIRCRPPRLPRPRPRPLIFPRP
Second: RRIRHRPPRLPRPRPRPRRAPRP
The “shrunken log2 fold change” value of the first is lower: -0.514 for the first, 0.21 for the second.

Compared with RRIRCRPPRLPRPRPRPSKDPRP, RRIRFRPPRLPRPRPRPAKDPRP is higher in “shrunken log2 fold change” value: -0.361 for the first, 0.255 for the second.

RRIRIRPPRLPRPRPRPGNPPRP and RRIRCRPPRLPRPRPRPYPMPRP are within 0.2 log units of each other in “shrunken log2 fold change” value: -0.366 for the first, -0.424 for the second.

RRIRMRPPRLPRPRPRPEWLPRP and RRIRLRPPRLPRPRPRPNADPRP are within 0.2 log units of each other in “shrunken log2 fold change” value: 0.056 for the first, 0.126 for the second.

RRIRQRPPRLPRPRPRPQFQPRP and RRIRVRPPRLPRPRPRPSVDPRP are within 0.2 log units of each other in “shrunken log2 fold change” value: -0.265 for the first, -0.193 for the second.

Compared with RRIRIRPPRLPRPRPRPCYNPRP, RRIRDRPPRLPRPRPRPEAYPRP is higher in “shrunken log2 fold change” value: -0.329 for the first, -0.0102 for the second.

RRIRIRPPRLPRPRPRPQCMPRP and RRIRYRPPRLPRPRPRPLCRPRP are within 0.2 log units of each other in “shrunken log2 fold change” value: -0.836 for the first, -0.863 for the second.

RRIRPRPPRLPRPRPRPGMCPRP and RRIRCRPPRLPRPRPRPYHIPRP are within 0.2 log units of each other in “shrunken log2 fold change” value: -0.0873 for the first, -0.27 for the second.

Compared with RRIRARPPRLPRPRPRPYSMPRP, RRIRSRPPRLPRPRPRPKVSPRP is higher in “shrunken log2 fold change” value: -0.484 for the first, 0.21 for the second.

Compared with RRIRIRPPRLPRPRPRPPQQPRP, RRIRIRPPRLPRPRPRPAIQPRP is lower in “shrunken log2 fold change” value: 0.197 for the first, -0.143 for the second.

Compared with RRIRCRPPRLPRPRPRPLTFPRP, RRIRDRPPRLPRPRPRPGLCPRP is higher in “shrunken log2 fold change” value: -0.419 for the first, 0.224 for the second.

Going from RRIRCRPPRLPRPRPRPVMYPRP to RRIRFRPPRLPRPRPRPIAMPRP, the “shrunken log2 fold change” value rises from -0.199 to 0.091.

RRIRCRPPRLPRPRPRPEYPPRP and RRIRNRPPRLPRPRPRPQRLPRP are within 0.2 log units of each other in “shrunken log2 fold change” value: 0.0734 for the first, 0.0491 for the second.

RRIRERPPRLPRPRPRPLFYPRP and RRIRLRPPRLPRPRPRPPFIPRP are within 0.2 log units of each other in “shrunken log2 fold change” value: -0.513 for the first, -0.635 for the second.

First: RRIRYRPPRLPRPRPRPGCEPRP
Second: RRIRTRPPRLPRPRPRPPDWPRP
The “shrunken log2 fold change” value of the first is lower: 0.0164 for the first, 0.705 for the second.

RRIRNRPPRLPRPRPRPWAQPRP and RRIRTRPPRLPRPRPRPLQTPRP are within 0.2 log units of each other in “shrunken log2 fold change” value: -0.0776 for the first, -0.00743 for the second.

RRIRNRPPRLPRPRPRPFFCPRP and RRIRIRPPRLPRPRPRPMNCPRP are within 0.2 log units of each other in “shrunken log2 fold change” value: 0.118 for the first, 0.0904 for the second.

Compared with RRIRARPPRLPRPRPRPETDPRP, RRIRERPPRLPRPRPRPIVNPRP is lower in “shrunken log2 fold change” value: 0.764 for the first, -0.0349 for the second.

Going from RRIRERPPRLPRPRPRPIPLPRP to RRIRRRPPRLPRPRPRPKIWPRP, the “shrunken log2 fold change” value rises from -0.275 to 0.227.

Compared with RRIRLRPPRLPRPRPRPIGIPRP, RRIRYRPPRLPRPRPRPGFWPRP is higher in “shrunken log2 fold change” value: -0.179 for the first, 0.689 for the second.

First: RRIRKRPPRLPRPRPRPICHPRP
Second: RRIRYRPPRLPRPRPRPEWMPRP
The “shrunken log2 fold change” value of the first is higher: 0.132 for the first, -0.758 for the second.

Going from RRIRVRPPRLPRPRPRPCMHPRP to RRIRHRPPRLPRPRPRPTRSPRP, the “shrunken log2 fold change” value falls from 1.2 to -0.0409.

Going from RRIRLRPPRLPRPRPRPDYNPRP to RRIRHRPPRLPRPRPRPGDDPRP, the “shrunken log2 fold change” value rises from -0.657 to -0.044.

First: RRIRRRPPRLPRPRPRPTPRPRP
Second: RRIRRRPPRLPRPRPRPLRLPRP
The “shrunken log2 fold change” value of the first is higher: 2.37 for the first, 0.59 for the second.

Compared with RRIRQRPPRLPRPRPRPEIQPRP, RRIRHRPPRLPRPRPRPNKSPRP is lower in “shrunken log2 fold change” value: 0.0108 for the first, -0.252 for the second.

Compared with RRIRCRPPRLPRPRPRPTSPPRP, RRIRKRPPRLPRPRPRPAHEPRP is higher in “shrunken log2 fold change” value: 0.102 for the first, 0.816 for the second.

Compared with RRIRERPPRLPRPRPRPGGKPRP, RRIRRRPPRLPRPRPRPYNAPRP is lower in “shrunken log2 fold change” value: -0.0276 for the first, -0.964 for the second.

RRIRMRPPRLPRPRPRPHIAPRP and RRIRHRPPRLPRPRPRPQPSPRP are within 0.2 log units of each other in “shrunken log2 fold change” value: 0.13 for the first, 0.111 for the second.

Compared with RRIRMRPPRLPRPRPRPTRLPRP, RRIRNRPPRLPRPRPRPSAPPRP is lower in “shrunken log2 fold change” value: 1.19 for the first, 0.0188 for the second.

RRIRLRPPRLPRPRPRPSPMPRP and RRIRQRPPRLPRPRPRPSISPRP are within 0.2 log units of each other in “shrunken log2 fold change” value: -0.107 for the first, -0.22 for the second.

First: RRIRGRPPRLPRPRPRPGETPRP
Second: RRIRHRPPRLPRPRPRPAQYPRP
The “shrunken log2 fold change” value of the first is higher: 0.515 for the first, -0.0609 for the second.

In the case of RRIRYRPPRLPRPRPRPHHSPRP, the “shrunken log2 fold change” value is reported as -1.27.
